Data set [1] concerns HeLa Kyoto. Briefly: melting temperature (median over replicates), in situ; higher = more thermally stable.
Data set [2] has as its system HeLa Kyoto. Briefly: solubility change mitosis vs G1/S (difference of NP-40 vs SDS log2 ratios) (log2 ratio difference); higher = more soluble in mitosis.
Data set [3] deals with HeLa Kyoto. Description: thermal stability score vs G1/S (z-score of summed log2 fold changes over temperatures); higher = more thermally stable than in G1/S.
For data set [4], the system named is HeLa Kyoto. Description: solubility in G1/S (NP-40 vs SDS abundance) (log2 ratio); higher = more soluble. Particulars: cell cycle stage: G1/S.
Setting [5] is: cell cycle stage: early G1 (4.5 h after nocodazole release).
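Throughout, for melting temperature (median over replicates), in situ: HeLa Kyoto cells synchronized by double thymidine or nocodazole block, proteins quantified by TMT10plex mass spectrometry, three independent biological replicates.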
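Throughout, for solubility change mitosis vs G1/S (difference of NP-40 vs SDS log2 ratios): synchronized HeLa Kyoto cells (double thymidine block for G1/S, nocodazole release for mitosis), protein amounts in NP-40 versus SDS lysates quantified by mass spectrometry, three biological replicates.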
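Throughout, for solubility in G1/S (NP-40 vs SDS abundance): HeLa Kyoto cells arrested at G1/S by double thymidine block, proteins quantified by TMT10plex mass spectrometry in mild NP-40 versus SDS extracts, three biological replicates.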
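Throughout, for thermal stability score vs G1/S (z-score of summed log2 fold changes over temperatures): synchronized HeLa Kyoto cells, proteins quantified by TMT10plex mass spectrometry, three biological replicates, mitosis taken 0.5 h after nocodazole release, G1/S directly after double thymidine block.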

In the case of “MDTPLRRSRRLGGLRPESPESLTSVSRTRRALVEFESNPEETREPGSPPSVQRAGLGSPERPPKTSPGSPRLQQGAGLESPQGQPEPGAASPQRQQDLHLESPQRQPEYSPESPRCQPKPSEEAPKCSQDQGVLASELAQNKEELTPGAPQHQLPPVPGSPEPYPGQQAPGPEPSQPLLELTPRAPGSPRGQHEPSKPPPAGETVTGGFGAKKRKGSSSQAPASKKLNKEELPVIPKGKPKSGRVWKDRSKKRFSQMLQDKPLRTSWQRKMKERQERKLAKDFARHLEEEKERRRQEKKQRRAENLKRRLENERKAEVVQVIRNPAKLKRAKKKQLRSIEKRDTLALLQKQPPQQPAAKI [CCDC86]”, the melting temperature in the data set on HeLa Kyoto [1] (cell cycle stage: G1/S) was determined as 57.2 °C; with HeLa Kyoto [1] (cell cycle stage: mitosis) it was 54.1 °C. Besides, in the data set on HeLa Kyoto [2], the “solubility change mitosis (log2)” value worked out at 0.956. Besides, the thermal stability score with HeLa Kyoto [3] (setting [5]) is -0.356; in the data set with HeLa Kyoto [3] (cell cycle stage: mitosis), -4.77. In addition, in the data set on HeLa Kyoto [4], the “solubility in G1/S (log2)” value was -1.03.

Take “MKGSRIELGDVTPHNIKQLKRLNQVIFPVSYNDKFYKDVLEVGELAKLAYFNDIAVGAVCCRVDHSQNQKRLYIMTLGCLAPYRRLGIGTKMLNHVLNICEKDGTFDNIYLHVQISNESAIDFYRKFGFEIIETKKNYYKRIEPADAHVLQKNLKVPSGQNADVQKTDN [NAA50]”: the figures for the melting temperature in the data set with HeLa Kyoto [1] (cell cycle stage: G1/S) and with HeLa Kyoto [1] (cell cycle stage: mitosis) were 53.1 °C and 53.8 °C, respectively. The “solubility change mitosis (log2)” value with HeLa Kyoto [2] was -0.0822. The thermal stability score in the data set with HeLa Kyoto [3] (setting [5]) is 0.726; with HeLa Kyoto [3] (cell cycle stage: mitosis), -0.495. Moreover, in the data set on HeLa Kyoto [4], the “solubility in G1/S (log2)” value stood at 0.325.

With “MEGGGGRDEPSACRAGDVNMDDPKKEDILLLADEKFDFDLSLSSSSANEDDEVFFGPFGHKERCIAASLELNNPVPEQPPLPTSESPFAWSPLAGEKFVEVYKEAHLLALHIESSSRNQAAQAAKPEDPRSQGVERFIQESKLKINLFEKEKEMKKSPTSLKRETYYLSDSPLLGPPVGEPRLLASSPALPSSGAQARLTRAPGPPHSAHALPRESCTAHAASQAATQRKPGTKLLLPRAASVRGRSIPGAAEKPKKEIPASPSRTKIPAEKESHRDVLPDKPAPGAVNVPAAGSHLGQGKRAIPVPNKLGLKKTLLKAPGSTSNLARKSSSGPVWSGASSACTSPAVGKAKSSEFASIPANSSRPLSNISKSGRMGPAMLRPALPAGPVGASSWQAKRVDVSELAAEQLTAPPSASPTQPQTPEGGGQWLNSSCAWSESSQLNKTRSIRRRDSCLNSKTKVMPTPTNQFKIPKFSIGDSPDSSTPKLSRAQRPQSCTSVGRVTVHSTPVRRSSGPAPQSLLSAWRVSALPTPASRRCSGLPPMTPKTMPRAVGSPLCVPARRRSSEPRKNSAMRTEPTRESNRKTDSRLVDVSPDRGSPPSRVPQALNFSPEESDSTFSKSTATEVAREEAKPGGDAAPSEALLVDIKLEPLAVTPDAASQPLIDLPLIDFCDTPEAHVAVGSESRPLIDLMTNTPDMNKNVAKPSPVVGQLIDLSSPLIQLSPEADKENVDSPLLKF [GTSE1]”, the melting temperature with HeLa Kyoto [1] (cell cycle stage: G1/S) was 49 °C; in the data set with HeLa Kyoto [1] (cell cycle stage: mitosis), 50.3 °C. In the data set on HeLa Kyoto [2], the “solubility change mitosis (log2)” value came out at 0.505. For the same sequence, the thermal stability score in the data set with HeLa Kyoto [3] (setting [5]) was 0.104; in the data set with HeLa Kyoto [3] (cell cycle stage: mitosis) it was -0.0609. The “solubility in G1/S (log2)” value with HeLa Kyoto [4] was found to be 0.351.

Take “MTFYLFGIRSFPKLWKSPYLGLGPGHSYVSLFLADRCGIRNQQRLFSLKTMSPQNTKATNLIAKARYLRKDEGSNKQVYSVPHFFLAGAAKERSQMNSQTEDHALAPVRNTIQLPTQPLNSEEWDKLKEDLKENTGKTSFESWIISQMAGCHSSIDVAKSLLAWVAAKNNGIVSYDLLVKYLYLCVFHMQTSEVIDVFEIMKARYKTLEPRGYSLLIRGLIHSDRWREALLLLEDIKKVITPSKKNYNDCIQGALLHQDVNTAWNLYQELLGHDIVPMLETLKAFFDFGKDIKDDNYSNKLLDILSYLRNNQLYPGESFAHSIKTWFESVPGKQWKGQFTTVRKSGQCSGCGKTIESIQLSPEEYECLKGKIMRDVIDGGDQYRKTTPQELKRFENFIKSRPPFDVVIDGLNVAKMFPKVRESQLLLNVVSQLAKRNLRLLVLGRKHMLRRSSQWSRDEMEEVQKQASCFFADDISEDDPFLLYATLHSGNHCRFITRDLMRDHKACLPDAKTQRLFFKWQQGHQLAIVNRFPGSKLTFQRILSYDTVVQTTGDSWHIPYDEDLVERCSCEVPTKWLCLHQKT [KIAA0391]”: the values for the melting temperature in the data set on HeLa Kyoto [1] (cell cycle stage: G1/S) and in the data set with HeLa Kyoto [1] (cell cycle stage: mitosis) were 47.8 °C and 48.4 °C, respectively. Further, the “solubility change mitosis (log2)” value with HeLa Kyoto [2] is -0.118. The thermal stability score in the data set with HeLa Kyoto [3] (setting [5]) was determined as 0.296; with HeLa Kyoto [3] (cell cycle stage: mitosis) it was 1.88. Besides, the “solubility in G1/S (log2)” value with HeLa Kyoto [4] came out at 0.189.

Consider “MLLLTRSPTAWHRLSQLKPRVLPGTLGGQALHLRSWLLSRQGPAETGGQGQPQGPGLRTRLLITGLFGAGLGGAWLALRAEKERLQQQKRTEALRQAAVGQGDFHLLDHRGRARCKADFRGQWVLMYFGFTHCPDICPDELEKLVQVVRQLEAEPGLPPVQPVFITVDPERDDVEAMARYVQDFHPRLLGLTGSTKQVAQASHSYRVYYNAGPKDEDQDYIVDHSIAIYLLNPDGLFTDYYGRSRSAEQISDSVRRHMAAFRSVLS [SCO2]”, for which the melting temperature in the data set with HeLa Kyoto [1] (cell cycle stage: G1/S) was 50.5 °C; in the data set with HeLa Kyoto [1] (cell cycle stage: mitosis), 51.5 °C. Also, in the data set with HeLa Kyoto [2], the “solubility change mitosis (log2)” value was -0.127. For the same sequence, the thermal stability score in the data set with HeLa Kyoto [3] (setting [5]) turned out to be 1.37; in the data set with HeLa Kyoto [3] (cell cycle stage: mitosis), 1.52. In the data set with HeLa Kyoto [4], the “solubility in G1/S (log2)” value was determined as 0.334.

The values are drawn from the supplement of paper PMC5998384.
